Source: patent US6448059

Legend:
[1] = target: T1, cysteine-tRNA synthetase (CysRS) (Escherichia coli) (UniProt P21888); details: kcat/Km of aminoacylation, 37 C; relative 1.6
T1 sequence: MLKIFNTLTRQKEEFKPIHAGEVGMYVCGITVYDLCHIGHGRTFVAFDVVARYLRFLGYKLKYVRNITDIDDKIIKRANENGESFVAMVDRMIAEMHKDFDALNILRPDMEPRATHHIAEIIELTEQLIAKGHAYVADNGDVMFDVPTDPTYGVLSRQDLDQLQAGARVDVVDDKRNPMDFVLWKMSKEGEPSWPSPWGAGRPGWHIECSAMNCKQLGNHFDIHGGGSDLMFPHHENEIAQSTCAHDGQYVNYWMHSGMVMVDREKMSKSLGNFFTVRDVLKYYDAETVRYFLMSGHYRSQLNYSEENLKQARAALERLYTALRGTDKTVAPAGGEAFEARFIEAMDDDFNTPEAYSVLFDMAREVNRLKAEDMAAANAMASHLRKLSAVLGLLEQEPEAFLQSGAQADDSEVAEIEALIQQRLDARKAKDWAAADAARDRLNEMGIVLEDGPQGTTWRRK

[2] = target: T2, cysteine-tRNA synthetase (CysRS) (Haemophilus influenzae) (UniProt P43816); details: kcat/Km of aminoacylation, 37 C; relative 1.4
T2 sequence: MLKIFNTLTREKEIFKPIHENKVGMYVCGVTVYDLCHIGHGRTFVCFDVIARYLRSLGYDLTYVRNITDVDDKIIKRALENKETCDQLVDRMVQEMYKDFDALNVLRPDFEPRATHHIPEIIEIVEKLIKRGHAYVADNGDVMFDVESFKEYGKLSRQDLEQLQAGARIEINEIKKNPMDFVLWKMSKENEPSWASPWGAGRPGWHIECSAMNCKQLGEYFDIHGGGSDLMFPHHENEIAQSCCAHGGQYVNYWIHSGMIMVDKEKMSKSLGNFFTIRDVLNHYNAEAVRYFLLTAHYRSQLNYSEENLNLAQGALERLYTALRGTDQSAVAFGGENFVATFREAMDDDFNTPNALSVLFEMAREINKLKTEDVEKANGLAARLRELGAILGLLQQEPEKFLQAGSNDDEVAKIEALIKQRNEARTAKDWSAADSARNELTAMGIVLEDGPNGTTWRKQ

Substance: B. subtilis tRNACys
- activity [1]: 340000 M⁻¹ s⁻¹
- activity [2]: 250000 M⁻¹ s⁻¹
